Assay results as given in US20240287163A1 (Chugai, published 2024).

T1: recombinant cynomolgus C1r2s2 tetramer (cynomolgus monkey, limits assumed)
T1 construct: also called cyC1r2s2; monkey C1r2s2
T1 chain 1: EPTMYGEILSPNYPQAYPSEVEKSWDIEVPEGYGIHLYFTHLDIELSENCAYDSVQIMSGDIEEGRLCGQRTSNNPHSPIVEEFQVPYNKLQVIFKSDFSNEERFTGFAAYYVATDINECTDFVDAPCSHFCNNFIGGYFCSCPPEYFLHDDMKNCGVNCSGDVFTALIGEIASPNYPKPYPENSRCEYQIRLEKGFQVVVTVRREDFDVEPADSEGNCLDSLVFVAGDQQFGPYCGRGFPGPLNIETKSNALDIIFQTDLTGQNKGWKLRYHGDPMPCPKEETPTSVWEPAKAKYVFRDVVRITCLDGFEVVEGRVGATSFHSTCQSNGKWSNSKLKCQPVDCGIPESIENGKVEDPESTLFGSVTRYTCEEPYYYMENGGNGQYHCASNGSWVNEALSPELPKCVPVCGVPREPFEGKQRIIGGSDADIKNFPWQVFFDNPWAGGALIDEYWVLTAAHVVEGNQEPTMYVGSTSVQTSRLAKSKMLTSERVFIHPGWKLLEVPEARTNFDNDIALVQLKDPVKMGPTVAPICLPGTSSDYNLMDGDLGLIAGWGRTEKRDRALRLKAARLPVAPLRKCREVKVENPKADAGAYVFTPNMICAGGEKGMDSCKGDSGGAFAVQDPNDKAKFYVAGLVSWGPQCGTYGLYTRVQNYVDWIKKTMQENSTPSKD
T1 chain 2: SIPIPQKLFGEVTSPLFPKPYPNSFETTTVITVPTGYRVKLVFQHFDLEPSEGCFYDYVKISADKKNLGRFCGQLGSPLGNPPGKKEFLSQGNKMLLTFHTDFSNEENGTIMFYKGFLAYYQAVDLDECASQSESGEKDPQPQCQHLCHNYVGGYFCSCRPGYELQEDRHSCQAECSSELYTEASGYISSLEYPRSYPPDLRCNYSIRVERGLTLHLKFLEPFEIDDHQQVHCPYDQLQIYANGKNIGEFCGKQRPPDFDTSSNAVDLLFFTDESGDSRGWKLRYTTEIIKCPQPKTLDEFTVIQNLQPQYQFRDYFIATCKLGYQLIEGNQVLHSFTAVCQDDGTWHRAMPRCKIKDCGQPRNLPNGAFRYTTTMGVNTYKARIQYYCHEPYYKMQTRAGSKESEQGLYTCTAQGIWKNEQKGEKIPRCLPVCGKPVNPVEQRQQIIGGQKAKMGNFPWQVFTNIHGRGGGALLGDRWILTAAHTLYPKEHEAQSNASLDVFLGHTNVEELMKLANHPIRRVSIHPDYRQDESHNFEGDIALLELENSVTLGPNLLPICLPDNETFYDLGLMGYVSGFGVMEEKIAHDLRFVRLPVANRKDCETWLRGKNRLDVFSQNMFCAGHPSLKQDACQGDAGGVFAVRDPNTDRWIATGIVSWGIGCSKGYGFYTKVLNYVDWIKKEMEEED

B1: recombinant human C1r2s2 tetramer (other)
chain 1: EPTMYGEILSPNYPQAYPSEVEKSWDIEVPEGYGIHLYFTHLDIELSENCAYDSVQIISGDTEEGRLCGQRSSNNPHSPIVEEFQVPYNKLQVIFKSDFSNEERFTGFAAYYVATDINECTDFVDVPCSHFCNNFIGGYFCSCPPEYFLHDDMKNCGVNCSGDVFTALIGEIASPNYPKPYPENSRCEYQIRLEKGFQVVVTLRREDFDVEAADSAGNCLDSLVFVAGDRQFGPYCGHGFPGPLNIETKSNALDIIFQTDLTGQKKGWKLRYHGDPMPCPKEDTPNSVWEPAKAKYVFRDVVQITCLDGFEVVEGRVGATSFYSTCQSNGKWSNSKLKCQPVDCGIPESIENGKVEDPESTLFGSVIRYTCEEPYYYMENGGGGEYHCAGNGSWVNEVLGPELPKCVPVCGVPREPFEEKQRIIGGSDADIKNFPWQVFFDNPWAGGALINEYWVLTAAHVVEGNREPTMYVGSTSVQTSRLAKSKMLTPEHVFIHPGWKLLEVPEGRTNFDNDIALVRLKDPVKMGPTVSPICLPGTSSDYNLMDGDLGLISGWGRTEKRDRAVRLKAARLPVAPLRKCKEVKVEKPTADAEAYVFTPNMICAGGEKGMDSCKGDSGGAFAVQDPNDKTKFYAAGLVSWGPQCGTYGLYTRVKNYVDWIMKTMQENSTPRED
chain 2: SIPIPQKLFGEVTSPLFPKPYPNNFETTTVITVPTGYRVKLVFQQFDLEPSEGCFYDYVKISADKKSLGRFCGQLGSPLGNPPGKKEFMSQGNKMLLTFHTDFSNEENGTIMFYKGFLAYYQAVDLDECASRSKLGEEDPQPQCQHLCHNYVGGYFCSCRPGYELQEDRHSCQAECSSELYTEASGYISSLEYPRSYPPDLRCNYSIRVERGLTLHLKFLEPFDIDDHQQVHCPYDQLQIYANGKNIGEFCGKQRPPDLDTSSNAVDLLFFTDESGDSRGWKLRYTTEIIKCPQPKTLDEFTIIQNLQPQYQFRDYFIATCKQGYQLIEGNQVLHSFTAVCQDDGTWHRAMPRCKIKDCGQPRNLPNGDFRYTTTMGVNTYKARIQYYCHEPYYKMQTRAGSRESEQGVYTCTAQGIWKNEQKGEKIPRCLPVCGKPVNPVEQRQQIIGGQKAKMGNFPWQVFTNIHGRGGGALLGDRWILTAAHTLYPKEHEAQSNASLDVFLGHTNVEELMKLGNHPIRRVSVHPDYRQDESYNFEGDIALLELENSVTLGPNLLPICLPDNDTFYDLGLMGYVSGFGVMEEKIAHDLRFVRLPVANPQACENWLRGKNRMDVFSQNMFCAGHPSLKQDACQGDAGGVFAVRDPNTDRWVATGIVSWGIGCSRGYGFYTKVLNYVDWIKKEMEEED
notes: C1s and C1r co-expressed in HEK293 and purified from the supernatant as tetramer; also called hC1r2s2

How the values were obtained:
[1] = target: B1; assay: SPR (Biacore T200), 37 C; ratio of KD at pH 6.0 to KD at pH 7.4
Method: (§1) The binding property of each sample at pH7.4 and pH6.0 was determined at 37° C. using BIACORE® T200 instrument (Cytiva). […] 20 mM ACES, 150 mM NaCl, 1.2 mM CaCl₂, 1 mg/mL BSA (not containing IgG), 1 mg/mL CMD, 0.05% Tween® 20, 0.005 w/v % NaN₃, pH7.4 or pH6.0 buffer was used as the running buffer. […] The antibody solution was added thereto at 30 μL/min for 120 seconds, the running buffer was then added at 30 μL/min for 180 seconds, and the dissociation constant (KD) of each antibody for hC1r2s2 and cyC1r2s2 was calculated. […] The sensor surface was regenerated every cycle, using 3 M MgCl2 (prepared in-house). The KD value was calculated using BIACORE® T200 evaluation software version 2.0 (Cytiva). The binding strengths under each pH condition were compared by dividing the KD value at pH6.0 with the KD value at pH7.4.

[2] = target: T1, recombinant cynomolgus C1r2s2 tetramer; assay: as above
Method: as §1

[3] = target: B1; assay: SPR (Biacore T200), 37 C, pH 6.0; hC1r2s2 captured by IPN009, antibody as analyte
Method: as §1

[4] = target: T1, recombinant cynomolgus C1r2s2 tetramer; assay: SPR (Biacore T200), 37 C, pH 7.4; cyC1r2s2 captured by IPN009, antibody as analyte
Method: as §1

[5] = target: B1; assay: SPR (Biacore T200), 37 C, pH 7.4; hC1r2s2 captured by IPN009, antibody as analyte
Method: as §1

[6] = target: T1, recombinant cynomolgus C1r2s2 tetramer; assay: SPR (Biacore T200), 37 C, pH 6.0; cyC1r2s2 captured by IPN009, antibody as analyte
Method: as §1

[7] = target: T2, native human C1q (CompTech) (human, UniProt P02745 23-245; P02746 28-253; P02747 29-245); assay: SPR (BIACORE T200, 37 C, pH 7.4), hC1r2s2 captured by immobilised IPN009VH2Vk3-SG1148, hC1q 100 nM then buffer, response normalised to C1r2s2 = 100 RU
T2 construct: the three subunits are from general knowledge; also called hC1q
Text: As the amount of capture, 200 resonance unit (RU) was aimed. […] The sensor surface was regenerated every cycle, using 3 M MgCl₂ (prepared in-house). The sensorgrams were obtained using BIACORE® T200 evaluation software, version 2.0 (Cytiva). […] For comparison of these sensorgrams, binding response of C1r2s2 was normalized as 100 RU.

T2 sequence (P02745 23-245 limits assumed, chain 1 of 3): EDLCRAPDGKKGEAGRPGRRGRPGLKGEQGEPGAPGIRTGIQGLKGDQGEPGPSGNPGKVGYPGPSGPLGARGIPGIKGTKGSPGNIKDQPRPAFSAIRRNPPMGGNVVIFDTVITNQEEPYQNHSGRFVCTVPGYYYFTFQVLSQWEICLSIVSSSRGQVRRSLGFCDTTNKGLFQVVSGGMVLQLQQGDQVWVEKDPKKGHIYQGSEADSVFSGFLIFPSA
T2 sequence (P02746 28-253 limits assumed, chain 2 of 3): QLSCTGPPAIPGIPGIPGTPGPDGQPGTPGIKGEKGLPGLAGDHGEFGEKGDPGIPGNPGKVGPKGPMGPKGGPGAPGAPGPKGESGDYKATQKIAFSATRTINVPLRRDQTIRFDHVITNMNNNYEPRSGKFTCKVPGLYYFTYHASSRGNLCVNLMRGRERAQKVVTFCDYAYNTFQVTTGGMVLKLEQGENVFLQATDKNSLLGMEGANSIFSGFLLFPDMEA
T2 sequence (P02747 29-245 limits assumed, chain 3 of 3): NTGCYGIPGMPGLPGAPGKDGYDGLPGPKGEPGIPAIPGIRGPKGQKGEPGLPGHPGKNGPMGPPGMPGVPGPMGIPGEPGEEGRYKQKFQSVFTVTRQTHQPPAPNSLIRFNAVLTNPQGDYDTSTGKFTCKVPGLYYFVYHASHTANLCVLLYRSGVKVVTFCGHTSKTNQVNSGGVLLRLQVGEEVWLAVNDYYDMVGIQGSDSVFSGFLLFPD

Row | KD (pH 6.0)/KD (pH 7.4) [1] | KD (pH 6.0)/KD (pH 7.4) [2] | Kd [3] [nM] | Kd [4] [nM] | Kd [5] [nM] | Kd [6] [nM] | binding result [7] | Binder
1 | 110 | 139 | 27.4 | 0.334 | 0.249 | 46.3 |  | COS0637pHv23-G1A3FcgSil+LowpI (antibody, V domains shown, VH 28, VL 51, CH 45, CL 23) VH: QVQLVESGGGVVQPGRSLRLSCAASGFTFSAYAMNWIRQPPGKGLEWIGLIYGTGHEFYASWAEERVTISVDTSKNQFSLKLSSVTAADTAVYYCARGRSKNYNSDFHIWGQGTLVTVSS VL: DIQMTQSPSSLSASVGDRVTITCQAHEILHDKKNLAWYQQKPGQPPKLLIYSASILESGVPSRFSGSGSGTDFTLTISSLQPEDFATYYCHGEFSHGSADLNHFGQGTKVEIKR
2 | 108 | 276 | 21.3 | 0.243 | 0.198 | 67.1 |  | COS0637pHv25-G1A3FcgSil+LowpI (antibody, V domains shown, VH 32, VL 55, CH 45, CL 23) VH: QVQLVESGGGVVQPGRSLRLSCAASGFTFSAYAMNWIRQPPGKGLEWIGLMYGSGHEFYASWAEERVTISVDTSKNQFSLKLSSVTAADTAVYYCARGRSKNYNSDFHLWGQGTLVTVSS VL: DIQMTQSPSSLSASVGDRVTITCQAHEILHDKKNLAWYQQKPGQPPKLLIYGASQRESGVPSRFSGSGSGTDFTLTISSLQPEDFATYYCHGEFPHSSADLNHFGQGTKVEIKR
3 |  |  |  |  |  |  | binds | B1
